The record followed here is US20120114659A1.

The assay concerns the target human NPRA on HEK cells, without ligand (human) (UniProt P16066). Nature of the assay: cell-based or functional assay.

Chain of BNP (B-type natriuretic peptide) (P16860 103-134): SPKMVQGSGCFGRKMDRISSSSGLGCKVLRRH
Chain of human NPRA on HEK cells, without ligand (human) (P16066 33-1061 limits assumed): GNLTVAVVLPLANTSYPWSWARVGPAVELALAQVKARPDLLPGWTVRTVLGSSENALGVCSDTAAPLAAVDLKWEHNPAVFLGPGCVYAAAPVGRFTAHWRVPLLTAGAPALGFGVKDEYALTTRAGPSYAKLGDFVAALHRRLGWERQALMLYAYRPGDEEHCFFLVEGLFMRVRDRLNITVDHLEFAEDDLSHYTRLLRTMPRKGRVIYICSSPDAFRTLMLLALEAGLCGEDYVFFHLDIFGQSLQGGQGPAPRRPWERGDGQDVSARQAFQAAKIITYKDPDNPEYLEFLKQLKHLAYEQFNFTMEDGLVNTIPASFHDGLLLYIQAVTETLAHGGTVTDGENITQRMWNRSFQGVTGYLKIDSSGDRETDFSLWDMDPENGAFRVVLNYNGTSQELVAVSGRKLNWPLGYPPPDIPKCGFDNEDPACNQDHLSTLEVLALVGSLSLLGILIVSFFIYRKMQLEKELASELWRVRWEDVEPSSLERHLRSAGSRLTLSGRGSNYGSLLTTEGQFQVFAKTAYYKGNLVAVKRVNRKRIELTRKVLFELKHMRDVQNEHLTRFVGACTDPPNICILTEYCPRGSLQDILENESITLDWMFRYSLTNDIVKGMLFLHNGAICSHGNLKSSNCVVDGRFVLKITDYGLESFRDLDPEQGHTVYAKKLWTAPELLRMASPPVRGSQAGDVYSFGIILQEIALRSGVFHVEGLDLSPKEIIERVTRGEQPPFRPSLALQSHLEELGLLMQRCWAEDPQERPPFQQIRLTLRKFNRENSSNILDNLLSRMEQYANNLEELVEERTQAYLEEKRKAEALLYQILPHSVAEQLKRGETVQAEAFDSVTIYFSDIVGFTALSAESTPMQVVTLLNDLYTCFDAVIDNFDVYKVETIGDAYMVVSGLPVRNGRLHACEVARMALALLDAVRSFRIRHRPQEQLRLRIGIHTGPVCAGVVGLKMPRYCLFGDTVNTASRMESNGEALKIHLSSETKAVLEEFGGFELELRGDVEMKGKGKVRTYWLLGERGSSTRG

For “BNP (B-type natriuretic peptide) (from UniProt P16860 103-134)”, the EC50 of BNP for cGMP production in HEK NPRA cells in presence of 400 nM Fab 5504 amounted to 18 nM and the EC50 of BNP for cGMP production in HEK NPRA cells in presence of 400 nM negative control Fab is 90 nM.
